12 molecules from US20080292639A1 (Amgen, published 2008) can be followed below.

One experiment has as its target T1, human Aβ40 fibrils (human, UniProt P05067 672-711).
T1 construct: domain: Aβ40; Aggregated (fibrillar) form; also called Fibrillar Aβ40; Aβ40 aggregate
Nature of the experiment: BIAcore, antibody injected over immobilized Aβ fibrils. The procedure: (§1) Preparation of BIacore Chip Surfaces: Immobilization of Proteins to a Biacore sensor chip (CM5) was performed according to manufacturer's instructions. Briefly, carboxyl groups on the sensor chip surfaces were activated by injecting 60 μL of a mixture containing 0.2 M N-ethyl-N′-(dimethylaminopropyl)carbodiimide (EDC) and 0.05 M N-hydroxysuccinimide (NHS). Specific surfaces were obtained by injecting rProtein G (Pierce), goat anti-mouse Fc (Jackson Immuno Research Lab) or Aβ aggregates diluted in 10 mM acetate, pH 4.0 at concentrations between 5 and 20 μg/mL. Excess reactive groups on the surfaces were deactivated by injecting 60 μL of 1 M ethanolamine. Final immobilized levels were about 10000 resonance units (RU) for the Protein G and anti-mouse Fc surfaces, and 400 RU for the Aβ aggregates surfaces. A blank, mock-coupled reference surface was also prepared on the sensor chips for background subtraction.
(§2) Kinetic analysis of antibodies binding to immobilized Aβ aggregates: Antibodies were diluted in PBS+0.005% P-20+0.1 mg/mL BSA from 100 nM to 0.2 nM. The samples at each concentration were injected over the immobilized Aβ aggregate surfaces, as well as over a blank surface for background subtraction. After a 15-minute dissociation, the surface was regenerated by injecting 8 mM glycine, pH 3.0, and 1 M NaCl for 30 seconds.
(§3) The kinetic analysis assay as described above was repeated using various humanized versions of anti-Aβ antibodies (2.1 chimera, 2.1 B, 2.1 C, 2.1 D, 2.1 E, 2.1 F, 2.1 G, 2.1 E.K5, 2.1E.K5R, 2.1 G.K5, 2.1 G.K5R, 2.1 I.K5R and 2.1 L).

The next experiment addresses T2, human Aβ42 fibrils (human, UniProt P05067 672-713).
T2 construct: domain: Aβ42; Aggregated (fibrillar) form; also called Fibrillar Aβ42; Aβ42 aggregate
Described as above. The protocol:
as §1, §2, §3

The target of experiment [1] is native amyloid plaques in unfixed brain sections of Tg2576 APP transgenic mice (human, UniProt P05067 672-713, limits assumed). The experiment can be described thus: cell-based or functional assay.
Sequence of native amyloid plaques in unfixed brain sections of Tg2576 APP transgenic mice (P05067 672-713 limits assumed): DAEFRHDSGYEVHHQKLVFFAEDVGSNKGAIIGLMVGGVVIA
Experiment [2] concerns the target amyloid plaques in unfixed brain sections of a human AD patient (human, UniProt P05067 672-713). Nature of the experiment: cell-based or functional assay.

“And” between values parts separate entries of the source, which are not always exact repeats. Identical values can stand only once.

T2 sequence (P05067 672-713 limits assumed): as above
T1 sequence (P05067 672-711 limits assumed): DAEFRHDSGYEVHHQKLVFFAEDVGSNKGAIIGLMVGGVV
Sequence of amyloid plaques in unfixed brain sections of a human AD patient (P05067 672-713): as the sequence (P05067 672-713 limits assumed) above

B1: 2.1 D (antibody, human IgG1, kappa)
heavy: not shown
light: DVVMTQSPLSLPVTLGQPASISCRSSQSIVHSNGNTYLEWYLQRPGQSPQLLIYKVSNRFSGVPDRFSGSGSGTDFTLKISRVEAEDVGVYYCFQGSHVPLTFGGGTKVEIKRTVAAPSVFIFPPSDEQLKSGTASVVCLLNNFYPREAKVQWKVDNALQSGNSQESVTEQDSKDSTYSLSSTLTLSKADYEKHKVYACEVTHQGLSSPVTKSFNRGEC
notes: Humanized IgG; also called 2.1 D (K5R)
In general, koff refers to the rate constant with which the complex falls apart. A higher koff goes with fast dissociation. As for B1, the values for the koff with human Aβ40 fibrils and in the experiment with human Aβ42 fibrils were 0.00012 s⁻¹ and 5.5e-05 s⁻¹, respectively.

B2: 2.1 G (also described as 2.1 GK5R) (antibody, human IgG1, kappa)
heavy: not shown
light: DIVMTQSPLSLPVTPGEPASISCRSSQSIVHSNGNTYLEWYLQKPGQSPRLLIYKVSNRFSGVPDRFSGSGSGTDFTLKISRVEAEDVGVYYCFQGSHVPLTFGGGTKVEIKRTVAAPSVFIFPPSDEQLKSGTASVVCLLNNFYPREAKVQWKVDNALQSGNSQESVTEQDSKDSTYSLSSTLTLSKADYEKHKVYACEVTHQGLSSPVTKSFNRGEC
notes: Humanized IgG
As for B2, in experiment [1], the “EC50 (µg/ml), ex vivo phagocytosis” value stood at 0.94 µg/mL. Moreover, the koff with human Aβ40 fibrils was 0.00011 s⁻¹ and < 5e-05 s⁻¹; with human Aβ42 fibrils, < 5e-05 s⁻¹.

B3: 2.1 J (antibody, human IgG1, kappa, V domains shown)
VH: QVTLKESGPALVKPTQTLTLTCTFSGFSLRTSGMGVGWIRQPPGKALEWLAHIWWDDDKSYNPSLKSQLTISKDTSKNQVVLTMTNMDPVDTATYYCARRNYYYDDYFAYWGQGTLVTVSS
VL: DVVMTQSPLSLPVTLGQPASISCRSSQSIVHSNGNTYLEWFQQRPGQSPRRLIYKVSNRFSGVPDRFSGSGSGTDFTLKISRVEAEDVGVYYCFQGSHVPLTFGQGTKLEIKR
In the case of B3, in experiment [1], the “EC50 (µg/ml), ex vivo phagocytosis” value came out at 1.22 µg/mL.

B4: 2.1 F (antibody, human IgG1, kappa)
heavy: not shown
light: DIVMTQSPLSLPVTPGEPASISCRSSQSIVHSNGNTYLEWYLQRPGQSPQLLIYKVSNRFSGVPDRFSGSGSGTDFTLKISRVEAEDVGVYYCFQGSHVPLTFGGGTKVEIKRTVAAPSVFIFPPSDEQLKSGTASVVCLLNNFYPREAKVQWKVDNALQSGNSQESVTEQDSKDSTYSLSSTLTLSKADYEKHKVYACEVTHQGLSSPVTKSFNRGEC
notes: Humanized IgG; also called 2.1 F (K5R)
As to B4, the off-rate constant (koff) was 0.00015 s⁻¹ with human Aβ40 fibrils and 0.00012 s⁻¹ with human Aβ42 fibrils.

B5: 2.1 E (antibody, human IgG1, kappa)
heavy: not shown
light: DVVMTQSPLSLPVTLGQPASISCRSSQSIVHSNGNTYLEWYLQKPGQSPRLLIYKVSNRFSGVPDRFSGSGSGTDFTLKISRVEAEDVGVYYCFQGSHVPLTFGGGTKVEIKRTVAAPSVFIFPPSDEQLKSGTASVVCLLNNFYPREAKVQWKVDNALQSGNSQESVTEQDSKDSTYSLSSTLTLSKADYEKHKVYACEVTHQGLSSPVTKSFNRGEC
notes: Humanized IgG; also called 2.1 E (K5R); 2.1E.K5R
For B5, in experiment [1], the “EC50 (µg/ml), ex vivo phagocytosis” value was determined as 2.23 µg/mL. Moreover, the koff with human Aβ40 fibrils is 0.00011 s⁻¹ and < 5e-05 s⁻¹; in the experiment with human Aβ42 fibrils it was < 5e-05 s⁻¹.

B6: 2.1 L (antibody, human IgG1, kappa)
heavy: not shown
light: DVLMTQSPLSLPVTLGQPASISCRSSQSIVHSNGNTYLEWYLQRPGQSPKLLIYKVSNRFSGVPDRFSGSGSGTDFTLKISRVEAEDVGVYYCFQGSHVPLTFGAGTKLEIKRTVAAPSVFIFPPSDEQLKSGTASVVCLLNNFYPREAKVQWKVDNALQSGNSQESVTEQDSKDSTYSLSSTLTLSKADYEKHKVYACEVTHQGLSSPVTKSFNRGEC
notes: Humanized IgG
As to B6, the “EC50 (µg/ml), ex vivo phagocytosis” value in experiment [1] was 0.82 µg/mL and 0.73 µg/mL. Besides, the koff in the experiment with human Aβ40 fibrils and with human Aβ42 fibrils was < 5e-05 s⁻¹ each time.

B7: 2.1 B (antibody, human IgG1, kappa, V domains shown)
VH: QVTLRESGPALVKPTQTLTLTCTFSGFSLRTSGMGVGWIRQPPGKALEWLAHIWWDDDKSYNPSLKSQLTISKDTSKNQVVLTMTNMDPVDTATYYCARRNYYYDDYFAYWGQGTLVTVSS
VL: DVVMTQSPLSLPVTLGQPASISCRSSQSIVHSNGNTYLEWFVQRPGQSPRVLIYKVSNRFSGVPDRFSGSGSGTDFTLKISRVEAEDVGVYYCFQGSHVPLTFGGGTKLEIKR
notes: Humanized IgG; also called 2.1 B (K5R)
For B7, the koff with human Aβ40 fibrils amounted to 0.00024 s⁻¹; in the experiment with human Aβ42 fibrils, 0.00019 s⁻¹.

B8: 2.1 I (also described as 2.1 I K5R) (antibody, human IgG1, kappa, V domains shown)
VH: QVTLRESGPALVKPTQTLTLTCTFSGFSLRTSGMGVGWIRQPPGKALEWLAHIWWDDDKSYNPSLKSQLTISKDTSKNQVVLTMTNMDPVDTATYYCARRNYYYDDYFAYWGQGTLVTVSS
VL: DIVMTQSPLSLPVTPGEPASISCRSSQSIVHSNGNTYLEWYLQKPGQSPQLLIYKVSNRFSGVPDRFSGSGSGTDFTLKISRVEAEDVGVYYCFQGSHVPLTFGGGTKVEIKR
notes: Humanized IgG
Take B8: the “EC50 (µg/ml), ex vivo phagocytosis” value in experiment [1] was 0.69 µg/mL. Moreover, the koff with human Aβ40 fibrils and with human Aβ42 fibrils was < 5e-05 s⁻¹ throughout.

B9: 2.1 K (antibody, human IgG1, kappa, V domains shown)
VH: QVTLKESGPALVKPTQTLTLTCTFSGFSLRTSGMGVGWIRQPPGKGLEWLAHIWWDDDKSYNPSLKSQLTISKDTSKNQVVLTMTNMDPVDTATYYCARRNYYYDDYFAYWGQGTTLTVSS
VL: DVLMTQSPLSLPVTLGQPASISCRSSQSIVHSNGNTYLEWYLQRPGQSPKLLIYKVSNRFSGVPDRFSGSGSGTDFTLKISRVEAEDVGVYYCFQGSHVPLTFGAGTKLEIKR
In the case of B9, in experiment [1], the “EC50 (µg/ml), ex vivo phagocytosis” value amounted to 0.84 µg/mL. Also, the “EC50 of phagocytosis by IC-21 cells on human AD brain sections” value in experiment [2] is 0.76 µg/mL.

B10: 2.1 C (antibody, human IgG1, kappa)
heavy: not shown
light: DVVMTQSPLSLPVTLGQPASISCRSSQSIVHSNGNTYLEWYLQRPGQSPQLLIYKVSNRFSGVPDRFSGSGSGTDFTLKISRVEAEDVGVYYCFQGSHVPLTFGQGTKLEIKRTVAAPSVFIFPPSDEQLKSGTASVVCLLNNFYPREAKVQWKVDNALQSGNSQESVTEQDSKDSTYSLSSTLTLSKADYEKHKVYACEVTHQGLSSPVTKSFNRGEC
notes: Humanized IgG; also called 2.1 C (K5R)
For B10, the koff with human Aβ40 fibrils was 0.00015 s⁻¹; with human Aβ42 fibrils, < 5e-05 s⁻¹.

B11: 2.1 E K5 (antibody)
heavy: not shown
light: DVVMTQSPLSLPVTLGQPASISCRSSQSIVHSNGNTYLEWYLQKPGQSPRLLIYKVSNRFSGVPDRFSGSGSGTDFTLKISRVEAEDVGVYYCFQGSHVPLTFGGGTKVEIKRTVAAPSVFIFPPSDEQLKSGTASVVCLLNNFYPREAKVQWKVDNALQSGNSQESVTEQDSKDSTYSLSSTLTLSKADYEKHKVYACEVTHQGLSSPVTKSFNRGEC
notes: Humanized IgG
Take B11: the “EC50 (µg/ml), ex vivo phagocytosis” value in experiment [1] is 3.94 µg/mL. Further, the koff with human Aβ40 fibrils and in the experiment with human Aβ42 fibrils was < 5e-05 s⁻¹ throughout.

B12: 2.1 G K5 (antibody, human IgG1, kappa)
heavy: not shown
light: DIVMTQSPLSLPVTPGEPASISCRSSQSIVHSNGNTYLEWYLQKPGQSPRLLIYKVSNRFSGVPDRFSGSGSGTDFTLKISRVEAEDVGVYYCFQGSHVPLTFGGGTKVEIKRTVAAPSVFIFPPSDEQLKSGTASVVCLLNNFYPREAKVQWKVDNALQSGNSQESVTEQDSKDSTYSLSSTLTLSKADYEKHKVYACEVTHQGLSSPVTKSFNRGEC
notes: Humanized IgG
Regarding B12, the “EC50 (µg/ml), ex vivo phagocytosis” value in experiment [1] was determined as 1.78 µg/mL. Moreover, the koff with human Aβ40 fibrils and with human Aβ42 fibrils was < 5e-05 s⁻¹ each time.
